# “Also recorded” adds a separate entry of the source.
# How the values were obtained:
# hLTBP1-proTGFβ1 [1] = target: T1, hLTBP1-proTGFβ1 (Homo sapiens, UniProt P01137); experiment: Octet binding kinetics (BLI); conditions: Fab in solution, immobilized biotinylated antigen
# T1 construct: biotin (the antigen complex is biotinylated); made in house
# Method: (§1) The table below exemplifies binding kinetics of the listed antibodies (e.g., Fabs) obtained by OCTET®-based binding assays. The experiments were conducted with immobilized, biotinylated antigen and Fab fragments (e.g., test antibodies) in solution.
# (§2) In some embodiments, the binding affinity of an antibody, or antigen-binding portion thereof, to an antigen (e.g., protein complex), such as presenting molecule-proTGFβ1 complexes, is determined using an Octet assay. In some embodiments, an Octet assay is an assay that determines one or more a kinetic parameters indicative of binding between an antibody and antigen. In some embodiments, an OCTET® system (FORTEBIO®, Menlo Park, Calif.) is used to determine the binding affinity of an antibody, or antigen-binding portion thereof, to presenting molecule-proTGFβ1 complexes. For example, binding affinities of antibodies may be determined using the FORTEBIO® Octet QKe dip and read label free assay system utilizing bio-layer interferometry. In some embodiments, antigens are immobilized to biosensors (e.g., streptavidin-coated biosensors) and the […] are presented in solution at high concentration (50 μg/mL) to measure binding interactions. In some embodiments, the binding affinity of an antibody, or antigen-binding portion thereof, to a presenting molecule-proTGFβ1 complex is determined using the protocol outlined in Table 14.
# (§3) The protocol used to measure the affinity of the antibodies to the complexes provided herein is summarized in Table 14 below, and a summary list of affinity profiles of exemplary antibodies of the present disclosure is provided in Table 6 herein.
# hGARP-proTGFβ1 [2] = target: T2, hGARP-proTGFβ1 (Homo sapiens, UniProt P01137); experiment: Octet binding kinetics (BLI); conditions: Fab in solution, immobilized biotinylated antigen
# T2 construct: biotin (the antigen complex is biotinylated); made in house
# Method: as §1, §2, §3
# hLTBP3-proTGFβ1 [3] = target: T3, hLTBP3-proTGFβ1 (Homo sapiens, UniProt P01137); experiment: Octet binding kinetics (BLI); conditions: Fab in solution, immobilized biotinylated antigen
# T3 construct: biotin (the antigen complex is biotinylated); made in house
# Method: as §1, §2, §3
# hLRRC33-proTGFβ1 = target: T4, hLRRC33-proTGFβ1 (Homo sapiens, UniProt P01137); experiment: Biacore SPR Fab binding kinetics
# T4 construct: biotin (the antigen complex is biotinylated); made in house
# Method: (§4) Among these antibodies, Ab42, Ab46 and Ab50 were selected for further evaluation. Surface plasmon resonance (SPR) was used to measure binding kinetics using a BIACORE® system. Association and dissociation kinetics of Fab fragments of Ab42, Ab46, Ab50 and a reference antibody (shown as “Ref”), to antigen complexes were measured, and resulting equilibrium dissociation constants (KD) are provided below. Experiments were carried out with eight types of LLCs, namely, hLTBP1-proTGFβ1, mLTBP1-proTGFβ1, hLTBP3-proTGFβ1, mLTBP3-proTGFβ1, hGARP-proTGFβ1, mGARP-proTGFβ1, hLRRC33-proTGFβ1 and mLRRC33-proTGFβ1.
# (§5) In vitro binding kinetics (on/off rates) were measured in Biacore-based assays and affinities were determined against all four known LLCs using both human and murine counterparts for each. Based on the association rate and dissociation rate, KD was calculated for each. In addition, relative affinities, as compared to the reference antibody as a benchmark, were calculated and expressed as “fold difference” relative to the reference antibody.
# (§6) A BIACORE® system was employed to determine the monovalent binding affinity and the kinetic parameters for antigen binding of test antibodies. The binding kinetics were evaluated by surface plasmon resonance using Biacore 8K (GE Healthcare). A Biotin CAP sensor chip was used to capture the biotinylated antigens. Fabs at various concentrations (0 nM, 0.62 nM, 1.25 nM, 2.5 nM, 5 nM and 10 nM) were injected over the captured antigens. Multi-cycle kinetics was employed where each analyte concentration was injected in a separate cycle and the sensor chip surface was regenerated after each cycle. All the assays were carried out in freshly prepared 1× HBS-EP+ buffer (10 mM HEPES, 150 mM NaCl, 3 mM EDTA, 0.05% Tween20, pH 7.4). Data for all the analyte concentrations for each interaction were fit globally to a 1:1 binding model to obtain the kinetic parameters. The Sensorgram for 0 nM analyte concentration was used as reference.
# (§7) The binding kinetics of antibody interactions with each of the antigen complexes, human LTBP1-ProTGFβ1, human LTBP3-ProTGFβ1, human GARP-ProTGFβ1, and human LRRC33-ProTGFβ1, were evaluated by surface plasmon resonance. Binding kinetics was evaluated by surface plasmon resonance using a BIACORE® 8K (GE) instrument. Biotinylated antigens were captured on a Biotin CAP chip and the Fab fragments of the antibodies were used as analytes. Sensorgrams for Fab binding at variable concentrations (0.6-10 nM) were globally fit to obtain the kinetic parameters.
# (§8) Binding kinetics for the Fabs were evaluated against each of the four human antigens, LTBP1-ProTGFβ1, LTBP3-ProTGFβ1, GARP-ProTGFβ1, and LRRC33-ProTGFβ1. […] These experiments were repeated.
# hLTBP1-proTGFβ1 [4] = target: T1, hLTBP1-proTGFβ1; experiment: Biacore SPR Fab binding kinetics
# Method: as §4, §5, §6, §7, §8
# hGARP-proTGFβ1 [5] = target: T2, hGARP-proTGFβ1; experiment: Biacore SPR Fab binding kinetics
# Method: as §4, §5, §6, §7, §8
# hLTBP3-proTGFβ1 [6] = target: T3, hLTBP3-proTGFβ1; experiment: Biacore SPR Fab binding kinetics
# Method: as §4, §5, §6, §7, §8
# LLCs = experiment: ELISA binding to LLCs; conditions: hIgG4; FIGS. 3 and 4
# mLTBP1-proTGFβ1 [7] = target: T5, mLTBP1-proTGFβ1 (Homo sapiens, UniProt P01137); experiment: Biacore SPR Fab binding kinetics; design: species or system mouse; conditions: Table 6
# T5 construct: biotin (the antigen complex is biotinylated); made in house
# Method: as §4, §5, §6
# mLTBP3-proTGFβ1 [8] = target: T6, mLTBP3-proTGFβ1; experiment: Biacore SPR Fab binding kinetics; design: species or system mouse; conditions: Table 8
# T6 construct: biotin (the antigen complex is biotinylated); made in house
# Method: as §4, §5, §6
# mLRRC33-proTGFβ1 [9] = target: T7, mLRRC33-proTGFβ1; experiment: Biacore SPR Fab binding kinetics; design: species or system mouse; conditions: Table 12
# T7 construct: biotin (the antigen complex is biotinylated); made in house
# Method: as §4, §5, §6
# mGARP-proTGFβ1 [10] = target: T8, mGARP-proTGFβ1 (Homo sapiens, UniProt P01137); experiment: Biacore SPR Fab binding kinetics; design: species or system mouse; conditions: Table 10
# T8 construct: biotin (the antigen complex is biotinylated); made in house
# Method: as §4, §5, §6
# mLTBP3-proTGFβ1 [11] = target: T9, mLTBP3-proTGFβ1 (Homo sapiens, UniProt P01137); experiment: Biacore SPR Fab binding kinetics; design: species or system mouse; conditions: Table 8
# T9 construct: biotin (the antigen complex is biotinylated); made in house
# Method: as §4, §5, §6
# mLRRC33-proTGFβ1 [12] = target: T10, mLRRC33-proTGFβ1 (Homo sapiens, UniProt P01137); experiment: Biacore SPR Fab binding kinetics; design: species or system mouse; conditions: Table 12
# T10 construct: biotin (the antigen complex is biotinylated); made in house
# Method: as §4, §5, §6
# mGARP-proTGFβ1 [13] = target: T11, mGARP-proTGFβ1; experiment: Biacore SPR Fab binding kinetics; design: species or system mouse; conditions: Table 10
# T11 construct: biotin (the antigen complex is biotinylated); made in house
# Method: as §4, §5, §6
# mLTBP1-proTGFβ1 [14] = target: T12, mLTBP1-proTGFβ1; experiment: Biacore SPR Fab binding kinetics; design: species or system mouse; conditions: Table 6
# T12 construct: biotin (the antigen complex is biotinylated); made in house
# Method: as §4, §5, §6
# CDHFD mice = experiment: choline-deficient high fat diet (CDHFD) liver fibrosis model; assay type: in vivo
# [15] = test system: Wistar-Han rats on a CDHF diet; experiment: CDHFD target engagement study in rats; assay type: in vivo
# Method: A similar study was run in 10-12 week old male Wistar-Han rats as follows: rats were fed on a CDHF diet for 12 weeks and then randomized. A first dose of the negative control (“HuNEG” IgG4, 30 mg/kg, n=6) or Ab46 (3, 10, and 30 mg/kg, n=8) was given on Day 1, and a second dose was given on Day 3. Treatment with a TGF-β type 1 receptor (ALK5) kinase inhibitor (ALK5i, 10 mg/kg) was used as a positive control. Tissue collection (left lateral lobe) was performed on Day 5. All rats had detectable serum antibody exposure. […] The study was repeated with a broader dose range: rats were fed on a CDHF diet for 12 weeks and then randomized. A single dose of 0.3 mg/kg, 1 mg/kg, 3 mg/kg, 10 mg/kg, or 30 mg/kg of Ab46 was given on Day 1, and tissue collection was performed after 48 hours.
# T3 sequence (P01137 30-390): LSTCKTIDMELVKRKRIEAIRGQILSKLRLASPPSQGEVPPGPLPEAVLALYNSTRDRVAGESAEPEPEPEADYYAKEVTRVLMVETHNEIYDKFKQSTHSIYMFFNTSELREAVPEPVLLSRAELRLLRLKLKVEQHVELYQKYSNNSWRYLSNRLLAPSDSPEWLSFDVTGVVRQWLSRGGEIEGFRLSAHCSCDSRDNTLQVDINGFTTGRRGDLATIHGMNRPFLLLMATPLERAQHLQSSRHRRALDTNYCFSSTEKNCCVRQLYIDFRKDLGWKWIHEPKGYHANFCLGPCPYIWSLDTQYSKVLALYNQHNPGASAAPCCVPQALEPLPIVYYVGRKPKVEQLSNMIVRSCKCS
# T3 sequence (Q9NS15 44-1303 partner): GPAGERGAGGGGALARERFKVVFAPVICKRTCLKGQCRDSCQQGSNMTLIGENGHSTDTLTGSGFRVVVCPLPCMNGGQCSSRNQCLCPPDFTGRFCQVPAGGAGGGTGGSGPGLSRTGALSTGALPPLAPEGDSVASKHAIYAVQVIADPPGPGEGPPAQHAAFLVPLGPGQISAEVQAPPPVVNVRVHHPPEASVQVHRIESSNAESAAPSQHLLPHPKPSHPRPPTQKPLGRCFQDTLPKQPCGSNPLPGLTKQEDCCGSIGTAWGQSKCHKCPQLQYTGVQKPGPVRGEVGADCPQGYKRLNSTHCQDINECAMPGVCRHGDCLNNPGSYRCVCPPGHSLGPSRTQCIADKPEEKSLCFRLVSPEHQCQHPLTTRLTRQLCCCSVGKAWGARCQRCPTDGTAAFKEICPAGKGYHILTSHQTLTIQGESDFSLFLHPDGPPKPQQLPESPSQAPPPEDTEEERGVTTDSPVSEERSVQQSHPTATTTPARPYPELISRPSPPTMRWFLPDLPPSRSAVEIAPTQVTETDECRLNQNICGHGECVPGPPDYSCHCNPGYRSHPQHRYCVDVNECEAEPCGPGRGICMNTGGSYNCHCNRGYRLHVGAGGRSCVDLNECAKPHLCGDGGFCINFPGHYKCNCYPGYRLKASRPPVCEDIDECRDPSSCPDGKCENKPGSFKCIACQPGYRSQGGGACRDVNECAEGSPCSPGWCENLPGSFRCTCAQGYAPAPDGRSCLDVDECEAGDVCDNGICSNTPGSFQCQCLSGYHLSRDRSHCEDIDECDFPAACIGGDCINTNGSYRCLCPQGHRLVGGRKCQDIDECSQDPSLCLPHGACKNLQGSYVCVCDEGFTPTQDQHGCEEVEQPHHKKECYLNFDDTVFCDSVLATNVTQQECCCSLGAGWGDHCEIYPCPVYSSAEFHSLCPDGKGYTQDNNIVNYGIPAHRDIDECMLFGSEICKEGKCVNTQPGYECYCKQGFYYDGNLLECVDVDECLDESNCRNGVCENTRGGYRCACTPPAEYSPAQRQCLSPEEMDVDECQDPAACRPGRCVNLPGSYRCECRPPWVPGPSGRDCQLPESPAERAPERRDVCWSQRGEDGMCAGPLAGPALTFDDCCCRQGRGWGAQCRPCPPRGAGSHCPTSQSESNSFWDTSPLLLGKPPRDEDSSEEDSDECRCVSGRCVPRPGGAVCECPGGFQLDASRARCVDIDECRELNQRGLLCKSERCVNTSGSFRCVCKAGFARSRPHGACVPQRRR
# T1 sequence (P01137 30-390): as the sequence (P01137 30-390) above
# T1 sequence (Q14766 347-1721 partner limits assumed): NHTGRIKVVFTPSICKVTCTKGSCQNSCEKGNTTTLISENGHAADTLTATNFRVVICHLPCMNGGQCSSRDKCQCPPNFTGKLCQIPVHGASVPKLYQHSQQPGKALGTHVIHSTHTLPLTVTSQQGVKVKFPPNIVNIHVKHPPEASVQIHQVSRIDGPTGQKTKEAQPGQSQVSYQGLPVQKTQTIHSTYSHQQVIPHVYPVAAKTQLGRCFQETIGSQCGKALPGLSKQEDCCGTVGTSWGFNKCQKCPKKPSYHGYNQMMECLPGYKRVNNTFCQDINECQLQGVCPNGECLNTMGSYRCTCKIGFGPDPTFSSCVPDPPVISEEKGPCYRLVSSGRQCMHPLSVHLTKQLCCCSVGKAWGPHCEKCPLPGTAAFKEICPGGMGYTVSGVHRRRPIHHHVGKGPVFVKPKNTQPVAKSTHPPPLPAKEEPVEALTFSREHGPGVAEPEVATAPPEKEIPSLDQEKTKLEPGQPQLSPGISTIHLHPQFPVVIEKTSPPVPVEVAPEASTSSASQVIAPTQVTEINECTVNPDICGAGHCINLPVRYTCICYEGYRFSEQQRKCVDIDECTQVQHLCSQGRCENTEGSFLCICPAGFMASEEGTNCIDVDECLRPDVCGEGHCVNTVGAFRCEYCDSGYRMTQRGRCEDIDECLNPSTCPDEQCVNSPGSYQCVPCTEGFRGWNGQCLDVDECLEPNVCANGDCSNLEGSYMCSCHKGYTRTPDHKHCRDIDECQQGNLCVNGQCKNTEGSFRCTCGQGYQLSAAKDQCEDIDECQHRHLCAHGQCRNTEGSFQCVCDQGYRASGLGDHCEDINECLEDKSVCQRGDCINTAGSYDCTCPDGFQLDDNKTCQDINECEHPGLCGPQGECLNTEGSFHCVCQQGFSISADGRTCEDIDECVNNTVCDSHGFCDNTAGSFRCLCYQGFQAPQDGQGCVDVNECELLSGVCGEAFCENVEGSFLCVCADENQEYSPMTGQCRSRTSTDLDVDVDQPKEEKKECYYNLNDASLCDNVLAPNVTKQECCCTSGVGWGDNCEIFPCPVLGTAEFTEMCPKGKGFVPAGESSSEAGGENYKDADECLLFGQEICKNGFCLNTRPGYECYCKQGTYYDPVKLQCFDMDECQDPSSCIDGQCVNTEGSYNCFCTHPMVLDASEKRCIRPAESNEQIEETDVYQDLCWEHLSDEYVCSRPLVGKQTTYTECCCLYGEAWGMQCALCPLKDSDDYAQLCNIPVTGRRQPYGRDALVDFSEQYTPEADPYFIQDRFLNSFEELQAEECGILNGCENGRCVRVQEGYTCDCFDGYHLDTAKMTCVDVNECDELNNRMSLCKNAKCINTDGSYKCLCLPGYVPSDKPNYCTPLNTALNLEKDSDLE
# T4 sequence (P01137 30-390): as the sequence (P01137 30-390) above
# T4 sequence (Q86YC3 with tags, fused parts or gaps partner limits assumed): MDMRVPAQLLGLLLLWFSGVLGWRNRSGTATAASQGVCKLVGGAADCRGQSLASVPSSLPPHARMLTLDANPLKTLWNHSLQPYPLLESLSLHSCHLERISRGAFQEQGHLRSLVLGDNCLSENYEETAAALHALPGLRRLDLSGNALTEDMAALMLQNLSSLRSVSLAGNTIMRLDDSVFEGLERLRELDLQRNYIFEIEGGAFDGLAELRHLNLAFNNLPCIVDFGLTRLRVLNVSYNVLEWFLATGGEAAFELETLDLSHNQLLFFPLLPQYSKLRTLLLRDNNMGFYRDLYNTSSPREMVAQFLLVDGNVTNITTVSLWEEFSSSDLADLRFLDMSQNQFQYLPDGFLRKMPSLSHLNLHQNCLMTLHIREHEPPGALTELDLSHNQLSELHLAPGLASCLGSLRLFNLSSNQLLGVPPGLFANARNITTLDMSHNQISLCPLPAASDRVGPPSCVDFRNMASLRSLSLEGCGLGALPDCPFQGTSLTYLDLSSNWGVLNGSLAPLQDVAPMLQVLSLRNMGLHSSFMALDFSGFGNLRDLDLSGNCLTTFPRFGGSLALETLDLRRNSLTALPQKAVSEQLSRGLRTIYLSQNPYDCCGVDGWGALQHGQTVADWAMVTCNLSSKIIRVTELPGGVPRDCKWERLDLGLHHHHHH
# T2 sequence (P01137 30-390): as the sequence (P01137 30-390) above
# T2 sequence (Q14392 18-627 partner limits assumed): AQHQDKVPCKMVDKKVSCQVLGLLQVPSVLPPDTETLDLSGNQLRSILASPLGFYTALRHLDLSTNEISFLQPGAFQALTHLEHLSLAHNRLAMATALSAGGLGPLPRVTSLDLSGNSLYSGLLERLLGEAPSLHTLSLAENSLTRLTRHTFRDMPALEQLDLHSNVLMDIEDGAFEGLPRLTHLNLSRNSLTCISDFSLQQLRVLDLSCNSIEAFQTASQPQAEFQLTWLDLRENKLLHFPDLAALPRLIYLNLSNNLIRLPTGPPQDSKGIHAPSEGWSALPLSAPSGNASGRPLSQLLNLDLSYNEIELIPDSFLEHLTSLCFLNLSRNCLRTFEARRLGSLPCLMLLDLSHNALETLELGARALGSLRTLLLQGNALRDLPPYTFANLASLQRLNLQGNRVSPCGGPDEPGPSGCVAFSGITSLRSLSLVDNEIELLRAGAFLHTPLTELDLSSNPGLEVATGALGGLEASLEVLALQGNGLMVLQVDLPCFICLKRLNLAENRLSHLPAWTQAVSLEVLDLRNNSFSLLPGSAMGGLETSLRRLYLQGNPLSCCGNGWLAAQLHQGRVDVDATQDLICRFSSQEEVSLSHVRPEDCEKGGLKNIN
# T11 sequence (P01137 30-390): as the sequence (P01137 30-390) above
# T11 sequence (G3XA59 18-628 partner limits assumed): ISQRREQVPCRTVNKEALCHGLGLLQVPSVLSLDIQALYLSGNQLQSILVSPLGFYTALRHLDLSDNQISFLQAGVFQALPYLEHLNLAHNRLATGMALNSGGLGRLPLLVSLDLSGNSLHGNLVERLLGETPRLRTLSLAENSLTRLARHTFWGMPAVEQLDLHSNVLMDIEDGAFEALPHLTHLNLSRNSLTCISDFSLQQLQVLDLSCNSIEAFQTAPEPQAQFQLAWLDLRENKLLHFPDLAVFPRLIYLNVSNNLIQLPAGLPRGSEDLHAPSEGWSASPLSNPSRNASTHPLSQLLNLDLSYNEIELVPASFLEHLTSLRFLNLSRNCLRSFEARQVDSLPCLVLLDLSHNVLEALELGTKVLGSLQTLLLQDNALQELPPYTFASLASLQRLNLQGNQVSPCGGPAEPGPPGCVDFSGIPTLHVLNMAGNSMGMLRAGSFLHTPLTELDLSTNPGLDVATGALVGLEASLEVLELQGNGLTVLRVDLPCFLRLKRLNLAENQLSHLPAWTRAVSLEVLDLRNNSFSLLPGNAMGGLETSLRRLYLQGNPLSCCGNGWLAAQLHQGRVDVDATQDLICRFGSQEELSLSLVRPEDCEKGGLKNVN
molecule,measurement,setting,value
"Ab46: activation inhibitor of TGFβ1; H-CDR3 VSGHWDYD, L-CDR2 AASGLES, L-CDR3 QQTYGVPLT (Table 3) (antibody, V domains shown) VH: EVQLLESGGGLVQPGGSLRLSCAASGFTFADYAMTWVRQAPGKGLEWVSAISGSGAATYFADSVKGRFTISRDNSKNTLYLQMNSLRAEDTAVYYCARVSSGHWDYDYWGQGTLVTVSS VL: DIQLTQSPSSLSASVGDRVTITCRASQSISSYLNWYQQKPGKAPKLLIYAASGLESGVPSRFSGSGSGTDFTLTISSLQPEDFATYYCQQTYGVPLTFGGGTKVEIK",KOFF,hLTBP1-proTGFβ1 [1],4.98e-05 s⁻¹
same,KON,hLTBP1-proTGFβ1 [1],7.03E+05 M^−1/s^−1
same,KOFF,hGARP-proTGFβ1 [2],0.00029 s⁻¹
same,KON,hGARP-proTGFβ1 [2],7.03E+05 M^−1/s^−1
same,KOFF,hLTBP3-proTGFβ1 [3],0.000438 s⁻¹
same,KON,hLTBP3-proTGFβ1 [3],6.19E+05 M^−1/s^−1
same,KOFF,"hLRRC33-proTGFβ1; Biacore 8K, Table 22",0.000162 s⁻¹
same,kon,"hLRRC33-proTGFβ1; Biacore 8K, Table 22",1.36e+06 M⁻¹ s⁻¹
same,KOFF,"hLRRC33-proTGFβ1; Biacore, Table 11",0.000128 s⁻¹
same,KON,"hLRRC33-proTGFβ1; Biacore, Table 11",1.52E+06 M^−1/s^−1
same,KOFF,"hLTBP1-proTGFβ1 [4]; Biacore 8K, Table 22",8.52e-05 s⁻¹
same,kon,"hLTBP1-proTGFβ1 [4]; Biacore 8K, Table 22",2.44e+06 M⁻¹ s⁻¹
same,KOFF,"hLTBP1-proTGFβ1 [4]; Biacore, Table 5",8.81e-05 s⁻¹
same,KON,"hLTBP1-proTGFβ1 [4]; Biacore, Table 5",1.75E+06 M^−1/s^−1
same,time bound to the antigen relative to the reference antibody,"hLTBP1-proTGFβ1 [4]; SPR, FIG. 2, antigen not given",more than 50 times
same,t1/2 (dissociation),"hLTBP1-proTGFβ1 [4]; SPR, FIG. 2, antigen not given, values fit the KOFF of Table 5",over 130 minutes
same,KOFF,"hGARP-proTGFβ1 [5]; Biacore 8K, Table 22",0.000359 s⁻¹
same,kon,"hGARP-proTGFβ1 [5]; Biacore 8K, Table 22",1.89e+06 M⁻¹ s⁻¹
same,KOFF,"hGARP-proTGFβ1 [5]; Biacore, Table 9",0.000222 s⁻¹
same,KON,"hGARP-proTGFβ1 [5]; Biacore, Table 9",9.65E+05 M^−1/s^−1
same,KOFF,"hLTBP3-proTGFβ1 [6]; Biacore 8K, Table 22",0.000195 s⁻¹
same,kon,"hLTBP3-proTGFβ1 [6]; Biacore 8K, Table 22",1.78e+06 M⁻¹ s⁻¹
same,KOFF,"hLTBP3-proTGFβ1 [6]; Biacore, Table 7",0.000128 s⁻¹
same,KON,"hLTBP3-proTGFβ1 [6]; Biacore, Table 7",1.00E+06 M^−1/s^−1
same,binding by ELISA,LLCs,Specific and selective binding
same,KON,mLTBP1-proTGFβ1 [7],1.85E+06 M^−1/s^−1
same,KOFF,mLTBP3-proTGFβ1 [8],0.000115 s⁻¹
same,KOFF,mLRRC33-proTGFβ1 [9],0.000112 s⁻¹
same,KON,mGARP-proTGFβ1 [10],1.02E+06 M^−1/s^−1
same,KON,mLTBP3-proTGFβ1 [11],1.20E+06 M^−1/s^−1
same,KON,mLRRC33-proTGFβ1 [12],1.26E+06 M^−1/s^−1
same,KOFF,mGARP-proTGFβ1 [13],0.000278 s⁻¹
same,KOFF,mLTBP1-proTGFβ1 [14],9.87e-05 s⁻¹
same,% positive pSMAD2 nuclei in liver,CDHFD mice; 30 mg/kg on Day 1 and Day 3 after ten weeks of CDHFD,Significant reduction in % positive pSMAD2 nuclei
same,ratio of phosphorylated versus total SMAD2/3 in the medial lobe (ELISA),"CDHFD mice; 3, 10 and 30 mg/kg on Day 1 and Day 3 after ten weeks of CDHFD, tissue Day 5, p<0.05",Significant reduction in pSMAD2/3
same,reduction in % pSMAD2 nuclei compared to comparable doses of Ab2,CDHFD mice; data not shown,greater
same,"% pSMAD2-positive nuclei, left lateral lobe","[15]; 3, 10 and 30 mg/kg on Day 1 and Day 3 after 12 weeks of CDHFD, tissue Day 5",suppression of SMAD2 phosphorylation; also recorded: able to suppress phosphorylation of SMAD2
same,reduction in percentage of pSMAD2-positive nuclei compared with Ab2,"[15]; rat, in vivo",greater
same,% pSMAD2-positive nuclei,"[15]; single dose 10 mg/kg and 30 mg/kg on Day 1, tissue after 48 hours",appeared to fully suppress SMAD2 phosphorylation; also recorded: significant reduction of pSMAD2-positive nuclei
